Results as given in US20240189439A1.

Tests used:
[1] = molecular target: human PMEL17 (human) (UniProt P40967); assay: FACS titration of IgG on G-361 cells (human melanoma), Alexa Fluor detection antibody
[2] = molecular target: human PMEL17 (human) (UniProt P40967); assay: FACS titration of IgG on G-361 cells (human melanoma), PE detection antibody

Sequence of human PMEL17 (human) (P40967 25-661): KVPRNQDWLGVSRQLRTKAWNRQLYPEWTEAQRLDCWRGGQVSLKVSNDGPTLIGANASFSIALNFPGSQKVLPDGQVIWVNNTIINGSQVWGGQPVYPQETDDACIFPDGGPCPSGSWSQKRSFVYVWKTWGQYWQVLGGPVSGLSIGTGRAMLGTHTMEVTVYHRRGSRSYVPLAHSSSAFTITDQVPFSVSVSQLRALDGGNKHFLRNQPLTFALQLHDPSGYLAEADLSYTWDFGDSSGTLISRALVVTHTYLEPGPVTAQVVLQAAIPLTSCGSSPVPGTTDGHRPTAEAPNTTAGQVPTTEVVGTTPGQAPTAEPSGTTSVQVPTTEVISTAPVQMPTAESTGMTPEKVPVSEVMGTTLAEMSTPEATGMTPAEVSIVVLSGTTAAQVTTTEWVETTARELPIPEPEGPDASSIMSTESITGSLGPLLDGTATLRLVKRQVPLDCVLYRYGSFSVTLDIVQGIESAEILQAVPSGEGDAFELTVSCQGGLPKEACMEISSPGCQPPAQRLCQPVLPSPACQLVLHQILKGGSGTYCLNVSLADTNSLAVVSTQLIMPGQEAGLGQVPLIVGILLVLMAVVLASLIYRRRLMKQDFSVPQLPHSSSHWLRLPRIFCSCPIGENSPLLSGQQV

B1: Y010900 (antibody, V domains shown)
VH: EVQLVESGGGLVKPGGSLRLSCAASGFTFSNAWMSWVRQAPGKGLEWVGRIKSKTDAGTTDYAAPVKGRFTISRDDSKNTLYLQMNSLKTEDTAVYYCARTIYPSAPSSSLDYWGQGTLVTVSS
VL: DIQMTQSPSSLSASVGDRVTITCRASQGISNYLAWYQQKPGKVPKLLIYAASTLQSGVPSRFSGSGSGTDFTLTISSLQPEDVATYYCQQLIFFPLTFGQGTKVEIK
An EC50 [1] of 1.3 nM was found for B1 in this work.

B2: Y010910 (antibody, V domains shown)
VH: EVQLVESGGGLVKPGGSLRLSCAASGFTFSNAWMSWVRQAPGKGLEWVGRIKSKTDAGTTDYAAPVKGRFTISRDDSKNTLYLQMNSLKTEDTAVYYCARVASPSAPGGFDYWGQGTLVTVSS
VL: DIQMTQSPSSLSASVGDRVTITCRASQGISNYLAWYQQKPGKVPKLLIYAASTLQSGVPSRFSGSGSGTDFTLTISSLQPEDVATYYCQQSLFAPFTFGQGTKVEIK
An EC50 [1] of 10 nM was found for B2 in this work.

B3: Y010356 (antibody, V domains shown)
VH: EVQLVESGGGLVKPGGSLRLSCAASGFTFSNYWISWVRQAPGKGLEWVGRIKSKTYGGTTDYAEPVKGRFTISRDDSKNTLYLQMNSLKTEDTAVYYCARVSGYYSHSGGFDVWGQGTLVTVSS
VL: DIQMTQSPSSLSASVGDRVTITCRASQGISNYLAWYQQKPGKVPKLLIYAASTLQSGVPSRFSGSGSGTDFTLTISSLQPEDVATYYCQKTWRTPGTFGQGTKVEIK
An EC50 [2] of 1.6 nM was found for B3 in this work.

B4: Y010906 (antibody, V domains shown)
VH: EVQLVESGGGLVKPGGSLRLSCAASGFTFSNAWMSWVRQAPGKGLEWVGRIKSKTDAGTTDYAAPVKGRFTISRDDSKNTLYLQMNSLKTEDTAVYYCARDEYPWGWFDVWGQGTLVTVSS
VL: DIQMTQSPSSVSASVGDRVTITCRASQGISSWLAWYQQKPGKAPKLLIYAASSLQSGVPSRFSGSGSGTDFTLTISSLQPEDFATYYCQQYIFYPLTFGQGTKVEIK
An EC50 [1] of 2 nM was found for B4 in this work.

B5: Y010417 (antibody, V domains shown)
VH: EVQLVQSGAEVKKPGESLKISCKGSGYSFTSYWIGWVRQMPGKGLEWMGIIYPGDSDTRYSPSFQGQVTISADKSISTAYLQWSSLKASDTAMYYCARGSSAASGLSGDLWGQGTLVTVSS
VL: DIQMTQSPSSLSASVGDRVTITCRASQSISSYLNWYQQKPGKAPKLLIYAASSLQSGVPSRFSGSGSGTDFTLTISSLQPEDFATYYCQQDYYSPFTFGQGTKVEIK
An EC50 [2] of 2.8 nM was found for B5 in this work.

B6: MOR024354 (antibody, V domains shown)
VH: QVQLLESGGGLVQPGGSLRLSCAASGFTFSSFGMSWVRQAPGKGLEWVSAISYSGSDTYYADSVKGRFTISRDNSKNTLYLQMNSLRAEDTAVYYCARDVGVMDYWGQGTLVTVSS
VL: SYELTQPLSVSVALGQTARITCSGDNLGTYYAHWYQQKPGQAPVLVIYSQSHRPSGIPERFSGSNSGNTATLTISRAQAGDEADYYCGAWDAPSPELVFGGGTKLTVL
An EC50 [1] of 1.7 nM was found for B6 in this work.

B7: Y010355 (antibody, V domains shown)
VH: EVQLVESGGGLVKPGGSLRLSCAASGFTFSNYWISWVRQAPGKGLEWVGRIKSKTYGGTTDYAEPVKGRFTISRDDSKNTLYLQMNSLKTEDTAVYYCARTSRRSYAFDYWGQGTLVTVSS
VL: DIQMTQSPSTLSASVGDRVTITCRASQSISSWLAWYQQKPGKAPKLLIYDASSLESGVPSRFSGSGSGTEFTLTISSLQPEDFATYYCQQITRYPVTFGQGTKVEIK
An EC50 [2] of 0.5 nM was found for B7 in this work.

B8: Y010903 (antibody, V domains shown)
VH: EVQLVESGGGLVKPGGSLRLSCAASGFTFSNAWMSWVRQAPGKGLEWVGRIKSKTDAGTTDYAAPVKGRFTISRDDSKNTLYLQMNSLKTEDTAVYYCARASHRLHSLFDVWGQGTLVTVSS
VL: DIQMTQSPSTLSASVGDRVTITCRASQSISSWLAWYQQKPGKAPKLLIYDASSLESGVPSRFSGSGSGTEFTLTISSLQPEDFATYYCQQGLFYPHTFGQGTKVEIK
An EC50 [1] of 3.2 nM was found for B8 in this work.
